Assay results as given in the supplement of paper PMC9112550, “Optimization of the antimicrobial peptide Bac7 by deep mutational scanning” (BMC Biology, 2022).

Tested on: Escherichia coli TOP10
Assay: shrunken log2 fold change of peptide-encoding DNA abundance (4.5 h post-induction vs induction); higher = less antimicrobial activity (less host growth inhibition)
Settings: time post-induction: 4.5 h; library: site-saturation at positions 5, 18, 19, 20
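Further: peptides expressed intracellularly from a pBAD plasmid library in pooled LB shake-flask culture, induced with 0.3% L-arabinose, DNA abundance read by NGS, three biological replicates, DESeq2 with apeglm shrinkage.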

Row | Sequence | shrunken log2 fold change
1 | RRIRMRPPRLPRPRPRPFSVPRP | -0.0472
2 | RRIRMRPPRLPRPRPRPFVRPRP | -0.01
3 | RRIRMRPPRLPRPRPRPFVYPRP | -0.00869
4 | RRIRMRPPRLPRPRPRPFWEPRP | 0.0748
5 | RRIRMRPPRLPRPRPRPFWFPRP | 0.132
6 | RRIRMRPPRLPRPRPRPFWPPRP | 1.3
7 | RRIRMRPPRLPRPRPRPFWQPRP | 0.341
8 | RRIRMRPPRLPRPRPRPFWVPRP | -0.0112
9 | RRIRMRPPRLPRPRPRPFYHPRP | -0.537
10 | RRIRMRPPRLPRPRPRPGANPRP | 1.17
11 | RRIRMRPPRLPRPRPRPGARPRP | 1.11
12 | RRIRMRPPRLPRPRPRPGASPRP | 0.854
13 | RRIRMRPPRLPRPRPRPGCYPRP | 0.135
14 | RRIRMRPPRLPRPRPRPGDAPRP | 0.853
15 | RRIRMRPPRLPRPRPRPGDKPRP | 0.9
16 | RRIRMRPPRLPRPRPRPGDQPRP | 1.13
17 | RRIRMRPPRLPRPRPRPGEIPRP | 0.995
18 | RRIRMRPPRLPRPRPRPGGVPRP | 0.952
19 | RRIRMRPPRLPRPRPRPGHHPRP | 0.209
20 | RRIRMRPPRLPRPRPRPGIHPRP | 0.142
21 | RRIRMRPPRLPRPRPRPGNCPRP | 0.0879
22 | RRIRMRPPRLPRPRPRPGNGPRP | 0.885

Row | Sequence | shrunken log2 fold change
23 | RRIRMRPPRLPRPRPRPGPTPRP | 1.54
24 | RRIRMRPPRLPRPRPRPGPVPRP | 1.14
25 | RRIRMRPPRLPRPRPRPGPWPRP | 0.89
26 | RRIRMRPPRLPRPRPRPGQAPRP | 0.34
27 | RRIRMRPPRLPRPRPRPGQQPRP | 1.34
28 | RRIRMRPPRLPRPRPRPGSVPRP | 0.696
29 | RRIRMRPPRLPRPRPRPGTQPRP | 0.407
30 | RRIRMRPPRLPRPRPRPGVMPRP | 0.633
31 | RRIRMRPPRLPRPRPRPGWQPRP | -0.032
32 | RRIRMRPPRLPRPRPRPGYQPRP | -0.0727
33 | RRIRMRPPRLPRPRPRPHACPRP | -0.0695
34 | RRIRMRPPRLPRPRPRPHAMPRP | -0.0135
35 | RRIRMRPPRLPRPRPRPHCPPRP | -0.506
36 | RRIRMRPPRLPRPRPRPHCSPRP | 0.183
37 | RRIRMRPPRLPRPRPRPHCTPRP | -0.147
38 | RRIRMRPPRLPRPRPRPHCYPRP | -0.0522
39 | RRIRMRPPRLPRPRPRPHDPPRP | 0.000689
40 | RRIRMRPPRLPRPRPRPHDQPRP | 0.351
41 | RRIRMRPPRLPRPRPRPHELPRP | 0.627
42 | RRIRMRPPRLPRPRPRPHENPRP | 0.218
43 | RRIRMRPPRLPRPRPRPHFKPRP | -0.0841
44 | RRIRMRPPRLPRPRPRPHFNPRP | -0.0825

Row | Sequence | shrunken log2 fold change
45 | RRIRMRPPRLPRPRPRPHFRPRP | 0.0286
46 | RRIRMRPPRLPRPRPRPHGIPRP | 0.0295
47 | RRIRMRPPRLPRPRPRPHHIPRP | -0.165
48 | RRIRMRPPRLPRPRPRPHHYPRP | -0.51
49 | RRIRMRPPRLPRPRPRPHICPRP | -0.0377
50 | RRIRMRPPRLPRPRPRPHIPPRP | -0.289
51 | RRIRMRPPRLPRPRPRPHLQPRP | 0.0376
52 | RRIRMRPPRLPRPRPRPHMTPRP | 0.342
53 | RRIRMRPPRLPRPRPRPHNAPRP | 0.207
54 | RRIRMRPPRLPRPRPRPHNQPRP | 0.177
55 | RRIRMRPPRLPRPRPRPHPGPRP | 0.293
56 | RRIRMRPPRLPRPRPRPHQLPRP | -0.0373
57 | RRIRMRPPRLPRPRPRPHQWPRP | 0.121
58 | RRIRMRPPRLPRPRPRPHRAPRP | 0.677
59 | RRIRMRPPRLPRPRPRPHSEPRP | 0.134
60 | RRIRMRPPRLPRPRPRPHTKPRP | 0.137
61 | RRIRMRPPRLPRPRPRPHTNPRP | 0.0722
62 | RRIRMRPPRLPRPRPRPHWFPRP | 0.0685
63 | RRIRMRPPRLPRPRPRPHWPPRP | 1.1
64 | RRIRMRPPRLPRPRPRPHYDPRP | -0.135
65 | RRIRMRPPRLPRPRPRPHYLPRP | 0.106
66 | RRIRMRPPRLPRPRPRPHYNPRP | -0.467

Row | Sequence | shrunken log2 fold change
67 | RRIRMRPPRLPRPRPRPHYQPRP | -0.228
68 | RRIRMRPPRLPRPRPRPICGPRP | 0.237
69 | RRIRMRPPRLPRPRPRPICIPRP | 0.0141
70 | RRIRMRPPRLPRPRPRPIDKPRP | -0.197
71 | RRIRMRPPRLPRPRPRPIINPRP | -0.0492
72 | RRIRMRPPRLPRPRPRPIIYPRP | -0.732
73 | RRIRMRPPRLPRPRPRPIKAPRP | 0.0335
74 | RRIRMRPPRLPRPRPRPIKRPRP | 0.0532
75 | RRIRMRPPRLPRPRPRPILGPRP | -0.00884
76 | RRIRMRPPRLPRPRPRPIMQPRP | 0.0343
77 | RRIRMRPPRLPRPRPRPISDPRP | 0.0757
78 | RRIRMRPPRLPRPRPRPITAPRP | 0.244
79 | RRIRMRPPRLPRPRPRPKAGPRP | 1.3
80 | RRIRMRPPRLPRPRPRPKAWPRP | 0.0535
81 | RRIRMRPPRLPRPRPRPKDHPRP | 0.458
82 | RRIRMRPPRLPRPRPRPKFRPRP | 0.169
83 | RRIRMRPPRLPRPRPRPKMPPRP | 0.493
84 | RRIRMRPPRLPRPRPRPKNHPRP | 0.412
85 | RRIRMRPPRLPRPRPRPKNYPRP | 0.0737
86 | RRIRMRPPRLPRPRPRPKPIPRP | 0.32
87 | RRIRMRPPRLPRPRPRPKQSPRP | 0.757
88 | RRIRMRPPRLPRPRPRPKQYPRP | 0.146

Row | Sequence | shrunken log2 fold change
89 | RRIRMRPPRLPRPRPRPKRPPRP | 0.85
90 | RRIRMRPPRLPRPRPRPKTGPRP | 0.895
91 | RRIRMRPPRLPRPRPRPKVCPRP | 0.0971
92 | RRIRMRPPRLPRPRPRPKVHPRP | -0.132
93 | RRIRMRPPRLPRPRPRPKVMPRP | 0.201
94 | RRIRMRPPRLPRPRPRPKVPPRP | 0.882
95 | RRIRMRPPRLPRPRPRPKVRPRP | 0.00262
96 | RRIRMRPPRLPRPRPRPKVWPRP | 1.04
97 | RRIRMRPPRLPRPRPRPKWYPRP | -0.171
98 | RRIRMRPPRLPRPRPRPKYPPRP | -0.00805
99 | RRIRMRPPRLPRPRPRPKYVPRP | -0.0144
100 | RRIRMRPPRLPRPRPRPLAPPRP | 0.735
101 | RRIRMRPPRLPRPRPRPLARPRP | 0.659
102 | RRIRMRPPRLPRPRPRPLDGPRP | 0.844
103 | RRIRMRPPRLPRPRPRPLECPRP | -0.0215
104 | RRIRMRPPRLPRPRPRPLEFPRP | -0.102
105 | RRIRMRPPRLPRPRPRPLEGPRP | 0.109
106 | RRIRMRPPRLPRPRPRPLFEPRP | 0.633
107 | RRIRMRPPRLPRPRPRPLFNPRP | -0.439
108 | RRIRMRPPRLPRPRPRPLGDPRP | 0.364
109 | RRIRMRPPRLPRPRPRPLHFPRP | -0.0889
